The RNAGym collection of RNA variant scans (doi:10.7554/elife.80360)

B1: CPEB3 Ribozyme (parent)
chain: GGGGGCCACAGCAGAAGCGUUCACGUCGCGGCCCCUGUCAGAUUCUGGUGAAUCUGCGAAUUCUGCUGU

Variants of: B1
Test: self-cleavage, relative activity (ratio to wild type); higher = more cleavage; co-transcriptional

Q: With C18A U62C as the variant, how does the self-cleavage read?
A: 0.141

Q: Which self-cleavage does the source give for C18A U62A here?
A: 0.133

Q: For C18U U62G, which self-cleavage is on record?
A: 0.494

Q: Which self-cleavage does the source give for G19C G58A here?
A: 0.162

Q: For G17U C66U, which self-cleavage is on record?
A: 0.412

Q: For G17U C66A, which self-cleavage is on record?
A: 0.239

Q: For G19C C57U, which self-cleavage is on record?
A: 0.146

Q: Which self-cleavage does the source give for G19A C29A here?
A: 0.159

Q: Which self-cleavage does the source give for G17U G58A here?
A: 0.343

Q: For C18A U20G, which self-cleavage is on record?
A: 0.0591

Q: Which self-cleavage does the source give for C18A U20A here?
A: 0.193

Q: With G19U C57A as the variant, how does the self-cleavage read?
A: 0.224

Q: Which self-cleavage does the source give for G19U A51C here?
A: 0.432

Q: Which self-cleavage does the source give for G19A G31A here?
A: 0.17

Q: With G19A U26G as the variant, how does the self-cleavage read?
A: 0.19

Q: For G19A U26C, which self-cleavage is on record?
A: 0.0939

Q: With C18A U69C as the variant, how does the self-cleavage read?
A: 0.517

Q: Which self-cleavage does the source give for G19A U43C here?
A: 0.116

Q: With G19A U43A as the variant, how does the self-cleavage read?
A: 0.108

Q: Which self-cleavage does the source give for C18A A23U here?
A: 0.179

Q: For C18A A23C, which self-cleavage is on record?
A: 0.128

Q: Which self-cleavage does the source give for G19C C32G here?
A: 0.207

Q: For C18G G56C, which self-cleavage is on record?
A: 0.101

Q: For C18G G56A, which self-cleavage is on record?
A: 0.107

Q: Which self-cleavage does the source give for G19U C32U here?
A: 0.55

Q: With G19C G56U as the variant, how does the self-cleavage read?
A: 0.123

Q: Which self-cleavage does the source give for C18G U21A here?
A: 0.217

Q: With C18A A51C as the variant, how does the self-cleavage read?
A: 0.164

Q: With C18A G19A as the variant, how does the self-cleavage read?
A: 0.135

Q: For G19C U21G, which self-cleavage is on record?
A: 0.161

Q: For G19C G50C, which self-cleavage is on record?
A: 0.148

Q: With C18G C57G as the variant, how does the self-cleavage read?
A: 0.17

Q: For C18A C54A, which self-cleavage is on record?
A: 0.162

Q: For C18A U44C, which self-cleavage is on record?
A: 0.106

Q: With C18A G68U as the variant, how does the self-cleavage read?
A: 0.264

Q: Which self-cleavage does the source give for C18U C29G here?
A: 0.132

Q: For C18G G50C, which self-cleavage is on record?
A: 0.201

Q: With G19A G47U as the variant, how does the self-cleavage read?
A: 0.12

Q: With G19A G47A as the variant, how does the self-cleavage read?
A: 0.122

Q: Which self-cleavage does the source give for C18G U46G here?
A: 0.226

Q: For G19A U69G, which self-cleavage is on record?
A: 0.249

Q: Which self-cleavage does the source give for G19A U69C here?
A: 0.333

Q: For C18G U38A, which self-cleavage is on record?
A: 0.158

Q: With C18G G28A as the variant, how does the self-cleavage read?
A: 0.133

Q: For C18U G28C, which self-cleavage is on record?
A: 0.174

Q: With C18U G28U as the variant, how does the self-cleavage read?
A: 0.206

Q: For C18A G48A, which self-cleavage is on record?
A: 0.227

Q: For C18A G48C, which self-cleavage is on record?
A: 0.146

Q: Which self-cleavage does the source give for C18G G65U here?
A: 0.161

Q: With G19A C54G as the variant, how does the self-cleavage read?
A: 0.159

Q: With C18G C24G as the variant, how does the self-cleavage read?
A: 0.107

Q: For C18G C24U, which self-cleavage is on record?
A: 0.106

Q: For G19U U20G, which self-cleavage is on record?
A: 0.139

Q: For G17U G25U, which self-cleavage is on record?
A: 0.121

Q: For C18G C22U, which self-cleavage is on record?
A: 0.192

Q: With C18U G48A as the variant, how does the self-cleavage read?
A: 0.948

Q: For G19C U49A, which self-cleavage is on record?
A: 0.178

Q: With G19A G58A as the variant, how does the self-cleavage read?
A: 0.132

Q: With C18A U38G as the variant, how does the self-cleavage read?
A: 0.212

Q: With C18U G19A as the variant, how does the self-cleavage read?
A: 0.144

Q: Which self-cleavage does the source give for C18U G41A here?
A: 0.331

Q: Which self-cleavage does the source give for C18U G41U here?
A: 0.44

Q: With C18U G41C as the variant, how does the self-cleavage read?
A: 0.211

Q: For C18A C63A, which self-cleavage is on record?
A: 0.119

Q: Which self-cleavage does the source give for C18U U43A here?
A: 0.549

Q: For G19A U21C, which self-cleavage is on record?
A: 0.164

Q: For G19A U21A, which self-cleavage is on record?
A: 0.143

Q: With G19A U21G as the variant, how does the self-cleavage read?
A: 0.14

Q: Which self-cleavage does the source give for G19C U43G here?
A: 0.122

Q: With G19C U43C as the variant, how does the self-cleavage read?
A: 0.134

Q: With G19A A42G as the variant, how does the self-cleavage read?
A: 0.166

Q: For G19A A42C, which self-cleavage is on record?
A: 0.13

Q: With C18U C45G as the variant, how does the self-cleavage read?
A: 0.778

Q: For C18U C45U, which self-cleavage is on record?
A: 0.877

Q: Which self-cleavage does the source give for C18U G56C here?
A: 0.341

Q: For C18U G56U, which self-cleavage is on record?
A: 0.578

Q: With G19C C33A as the variant, how does the self-cleavage read?
A: 0.196

Q: For C18A G56A, which self-cleavage is on record?
A: 0.156

Q: For C18A G56U, which self-cleavage is on record?
A: 0.133

Q: For G19C G48A, which self-cleavage is on record?
A: 0.189

Q: With G19C G48U as the variant, how does the self-cleavage read?
A: 0.141

Q: With G19C G48C as the variant, how does the self-cleavage read?
A: 0.169

Q: With C18U A59U as the variant, how does the self-cleavage read?
A: 0.445

Q: Which self-cleavage does the source give for C18U A59C here?
A: 0.32

Q: Which self-cleavage does the source give for G19C C39U here?
A: 0.158

Q: For G19C C39G, which self-cleavage is on record?
A: 0.162

Q: For C18G G47C, which self-cleavage is on record?
A: 0.0572

Q: Which self-cleavage does the source give for C18G G47U here?
A: 0.177

Q: With G19C U62C as the variant, how does the self-cleavage read?
A: 0.123

Q: With G19C U62A as the variant, how does the self-cleavage read?
A: 0.107

Q: For G19U G30C, which self-cleavage is on record?
A: 0.186

Q: Which self-cleavage does the source give for G17U G65C here?
A: 0.218

Q: For G17U G30A, which self-cleavage is on record?
A: 0.184

Q: For G19A A59U, which self-cleavage is on record?
A: 0.169

Q: For G19A U38G, which self-cleavage is on record?
A: 0.156

Q: Which self-cleavage does the source give for G17U U44G here?
A: 0.31

Q: Which self-cleavage does the source give for G19U C45A here?
A: 0.459

Q: With G19C U38A as the variant, how does the self-cleavage read?
A: 0.218

Q: With G19C U38C as the variant, how does the self-cleavage read?
A: 0.135

Q: For G19C U64A, which self-cleavage is on record?
A: 0.176

Q: With G19C U64G as the variant, how does the self-cleavage read?
A: 0.139

Q: With G17U U21C as the variant, how does the self-cleavage read?
A: 0.14

Q: For C18A U26G, which self-cleavage is on record?
A: 0.118

Q: Which self-cleavage does the source give for C18A U26C here?
A: 0.17

Q: For G19U U36C, which self-cleavage is on record?
A: 0.212

Q: For G19U U36A, which self-cleavage is on record?
A: 0.164

Q: Which self-cleavage does the source give for G19U U49A here?
A: 0.639

Q: For G19A G56U, which self-cleavage is on record?
A: 0.155

Q: With G19U G68A as the variant, how does the self-cleavage read?
A: 0.793

Q: Which self-cleavage does the source give for G19A G50U here?
A: 0.133

Q: For G19U G28C, which self-cleavage is on record?
A: 0.125

Q: Which self-cleavage does the source give for C18U U67G here?
A: 0.922

Q: Which self-cleavage does the source give for G19U C35A here?
A: 0.119

Q: Which self-cleavage does the source give for G19U C35U here?
A: 0.262

Q: With G19A C33G as the variant, how does the self-cleavage read?
A: 0.172

Q: With G19C C22U as the variant, how does the self-cleavage read?
A: 0.158

Q: With G19C G25U as the variant, how does the self-cleavage read?
A: 0.145

Q: For G19C G25A, which self-cleavage is on record?
A: 0.101

Q: Which self-cleavage does the source give for G19C A40C here?
A: 0.0886

Q: With G19U U55G as the variant, how does the self-cleavage read?
A: 0.127

Q: With G19U U55A as the variant, how does the self-cleavage read?
A: 0.209

Q: Which self-cleavage does the source give for G19A G48C here?
A: 0.188

Q: For C18U U36G, which self-cleavage is on record?
A: 0.19

Q: With C18G G19C as the variant, how does the self-cleavage read?
A: 0.0934

Q: For G19C U53C, which self-cleavage is on record?
A: 0.0977

Q: Which self-cleavage does the source give for G19A U62C here?
A: 0.231

Q: Which self-cleavage does the source give for C18A C66G here?
A: 0.147

Q: For C18A C66A, which self-cleavage is on record?
A: 0.13

Q: With C18A C66U as the variant, how does the self-cleavage read?
A: 0.153

Q: Which self-cleavage does the source give for G19A U44C here?
A: 0.16

Q: With C18U C22A as the variant, how does the self-cleavage read?
A: 0.0833

Q: For C18U C39G, which self-cleavage is on record?
A: 0.491

Q: With G19A C34G as the variant, how does the self-cleavage read?
A: 0.181

Q: For C18G A59C, which self-cleavage is on record?
A: 0.149

Q: Which self-cleavage does the source give for G17U U67G here?
A: 0.627

Q: With G17U U67A as the variant, how does the self-cleavage read?
A: 0.513

Q: With G17U U46G as the variant, how does the self-cleavage read?
A: 0.599

Q: With G17U U46A as the variant, how does the self-cleavage read?
A: 0.624

Q: With C18U C35U as the variant, how does the self-cleavage read?
A: 0.687

Q: Which self-cleavage does the source give for C18U U49C here?
A: 0.864

Q: For C18U U49A, which self-cleavage is on record?
A: 0.914

Q: For C18G G58A, which self-cleavage is on record?
A: 0.104

Q: For C18A C35A, which self-cleavage is on record?
A: 0.155

Q: For C18A U53A, which self-cleavage is on record?
A: 0.188

Q: Which self-cleavage does the source give for C18A U53G here?
A: 0.17

Q: With G19U G50U as the variant, how does the self-cleavage read?
A: 0.509

Q: For G17U G28U, which self-cleavage is on record?
A: 0.134

Q: With C18U C32G as the variant, how does the self-cleavage read?
A: 0.213

Q: With C18G U49A as the variant, how does the self-cleavage read?
A: 0.259

Q: With G19U A60C as the variant, how does the self-cleavage read?
A: 0.18

Q: For G19C G41U, which self-cleavage is on record?
A: 0.129

Q: For G19C U44C, which self-cleavage is on record?
A: 0.164

Q: Which self-cleavage does the source give for G19U U21G here?
A: 0.159

Q: For G19U U21A, which self-cleavage is on record?
A: 0.31

Q: Which self-cleavage does the source give for C18A U46C here?
A: 0.228

Q: For G19U U38C, which self-cleavage is on record?
A: 0.252

Q: With C18A C24G as the variant, how does the self-cleavage read?
A: 0.186

Q: With G19C A23G as the variant, how does the self-cleavage read?
A: 0.11

Q: For C18A G25A, which self-cleavage is on record?
A: 0.163

Q: With G19C A60U as the variant, how does the self-cleavage read?
A: 0.128

Q: Which self-cleavage does the source give for G19C A60G here?
A: 0.119

Q: With G17U G48A as the variant, how does the self-cleavage read?
A: 0.748

Q: For G19U G58C, which self-cleavage is on record?
A: 0.443

Q: Which self-cleavage does the source give for G17U U38C here?
A: 0.413

Q: For C18U A40U, which self-cleavage is on record?
A: 0.378

Q: Which self-cleavage does the source give for C18U A40G here?
A: 0.742

Q: For C18G C29G, which self-cleavage is on record?
A: 0.187
